{
  "source": "patent US20120190612A1",
  "about": "“METHODS OF TREATMENT” (CRC FOR ASTHMA AND AIRWAYS LTD., priority 2009, published 2012)",
  "molecules": {"B1": {"name": "lamstatin: NC1 domain of the α5 chain of collagen type IV; human amino acid sequence SEQ ID NO:1; recombinant (protein, listed as Homo sapiens)", "chain": "GFLITRHSQTTDAPQCPQGTLQVYEGFSLLYVQGNKRAHGQDLGTAGSCLRRFSTMPFMFCNINNVCNFASRNDYSYWLSTPEPMPMSMQPLKGQSIQPFISRCAVCEAPAVVIAVHSQTIQIPHCPQGWDSLWIGYSFMMHTSAGAEGSGQALASPGSCLEEFRSAPFIECHGRGTCNYYANSYSFWLATVDVSDMFSKPQSETLKAGDLRTRISRCQVCMKRT"}},
  "key": {"HMVEC-LLy cells": {"test_system": "HMVEC-LLy cells", "experiment": "Real-time impedance (xCellgenix) cell attachment and proliferation", "type": "cell-based, human", "description": "HMVEC-LLy cells were treated with lamstatin and cell attachment and proliferation were measured in realtime using the xCellgenix system (Roche). This system measures a cell index factor, representing impedance mediated by cells. Gold electrodes on the well bottom measure this impedance and the more cells attach to the bottom the higher the impedance (cell index). This measurement allows for detecting early events after treatment such as detachment (e.g. through cell death) or inhibition of proliferation and reduction of cell number.\nA Xcellgenix gold coated microtiter plate was seeded with 5×10^3 cells (HMVEC-LLy) per well and incubated in 100 μL complete EBM-2 for 24 hrs prior to treatment. In fresh media, serial dilutions of lamstatin or vehicle (1 nM EDTA, pH 3.0) were prepared. Cell culture supernatant was removed and replaced by 100 μL fresh serially diluted lamstatin. The plate was locked into the Xcellgenix recorder and a signal of impedance recorded at 5 min intervals for 6 hrs, and subsequently every 60 min."}, "LAM nodule cells": {"test_system": "LAM nodule cells", "experiment": "MTT cell viability assay, LAM nodule cells", "type": "cell-based", "settings": "intermediate layer, centre and outer nodule cells, 72 hrs", "description": "To determine the function of lamstatin, human primary lymphatic endothelial cells (HMVEC-LLy cells) were exposed to various concentrations of lamstatin and an MTT assay was performed. As a comparison, commercially available tumstatin was used. Specifically, to assess cell viability 4×10^3 HMVEC-LLy cells were seeded per well in 100 μl complete EBM-2 media (with bullet kit, Lonza) and incubated for 2 hrs at 37° C., 5% CO2. After this period lamstatin, tumstatin and respective vehicles (1 nM EDTA, pH 3.0) were prepared in complete EBM-2 as serial dilutions in a separate plate and added. Cells were grown for 24 hrs before MTT (1 mg/mL in PBS) was added. After 6 h of further incubation cells were lysed overnight with 10% SDS/0.01 M HCl and measured the following day in a plate reader at 570 nm.\nThe inventors isolated lung cells from a LAM patient, which cells originated from the LAM nodules. These cells were termed according to their location within the nodule, as intermediate layer in the nodule, centre cells and outer nodule cells. These cells were then treated with lamstatin or tumstatin and cell viability measured after 72 hrs. The MTT viability assay was performed as described above in Example 1."}, "epithelial cells (A549)": {"test_system": "epithelial cells (A549)", "experiment": "MTT cell viability assay, epithelial cells", "type": "cell-based", "settings": "increasing concentrations, 72 hrs"}, "[1]": {"test_system": "lymphatic endothelial cells", "procedure": "The MTT assay was performed as described above. […] To differentiate between antiproliferative and cytotoxic effects, cells were counted 72 hrs after treatment with various concentrations of lamstatin."}, "[2]": {"test_system": "lung adenocarcinoma cells (LNM35 AAV-GFP)", "experiment": "Mouse ear tumour plug model of tumour-induced lymphangiogenesis", "type": "in vivo", "description": "A mouse ear tumour plug model was utilized in which green fluorescent protein (GFP)-tagged lung adenocarcinoma cells (LNM35 AAV-GFP) were injected between the two layers of skin of the ears of NOD/SCID mice. 1×10^6 tumour cells were embedded in […] growth factor free Matrigel® medium enriched with vehicle (1 nM EDTA, pH3.0) or lamstatin at either 10 μg/mL or 100 μg/mL. Mice were divided into three groups.\nGroup 1 (n=9): One ear of each mouse injected with tumour cells+10 μg/mL lamstatin; the other ear injected with tumour cells+vehicle control. Group 2 (n=9): One ear of each mouse injected with tumour cells+100 μg/mL lamstatin; the other ear injected with tumour cells+vehicle control. Group 3 (n=3): Each ear injected with Matrigel® only.\nInjections were single shots such that at least 25 μL was injected. 12 days after injection were sacrificed by anesthetisation and cervical dislocation. Ears were removed for whole mount staining. Flaps of skin from each ear were carefully separated, fixed and stained for either the lymphatic endothelial cell specific marker LyVe-1 (rabbit polyclonal anti-LyVe-1 antibody detected using anti-rabbit Alexafluor 647) or the vascular endothelial cell specific marker PECAM (CD31 rat anti-mouse antibody clone MEC13.3 (Pharmingen), detected with […]). Tumour cells were visualised by detection of GFP expression. Images of representative regions of ears were obtained using a confocal microscope and LyVe-1 or PECAM staining was quantified.\nUsing the LyVe-1 whole mount stained mouse ear sections, the inventors further investigated the morphology of lymphatic vessel formation. Specifically confocal images were loaded into Image J software (www.sbweb.nih.gov/ij/), a 5×5 grid overlayed and vessels examined for branching and looping. The functionality of a lymphatic network is based on its maturity and in general it is accepted that a tumour induces a rather immature network formation. Reconnecting vessels (measured as loops) and increased branching (measured as branches) are signs of immature vessels induced by, for example, a tumour (see for example Shayan et al. Growth Factors 25, 417-425, 2007).\nBranches were defined as two clearly distinguishable vessels that separate out without rejoining. Loops were defined as small, circular vessel structures in the same focal plane. Branches or loops were counted separately per image and mean values were calculated for each treatment group."}, "[3]": {"settings": "lamstatin 10 or 100 μg/mL, CP17 5 or 50 μA, vs vehicle"}},
  "data": [
    {"molecule": "B1", "values": [
      {"measurement": "time required to reach a threshold cell index of 1, compared with vehicle control", "setting": "HMVEC-LLy cells; 10 μg/mL", "result": "double"},
      {"measurement": "cell attachment", "setting": "HMVEC-LLy cells; after 55 min of treatment, various concentrations", "result": "reduction in cell attachment"},
      {"measurement": "reduction of cell viability (MTT)", "setting": "LAM nodule cells", "result": "effective in reducing cell viability of all nodule cell types at both high (e.g. 10 μg/mL) and low (1.25-2.5 μg/mL) concentrations"},
      {"measurement": "cell viability (MTT)", "setting": "epithelial cells (A549)", "result": "only lymphatic endothelial cells responded"},
      {"measurement": "viable cells (trypan blue exclusion)", "setting": "[1]", "result": "no cytotoxic effect"},
      {"measurement": "cell count", "setting": "[1]; 10 μg/mL, 72 hrs after treatment, data not shown", "result": "anti-proliferative effect was observed"},
      {"measurement": "lymphatic vessel formation around the tumour (visual inspection)", "setting": "[2]; 10 μg/mL", "result": "reduction in the number of lymphatic vessels and a dilation of lymphatic vessels"},
      {"measurement": "PECAM staining in the vicinity of tumour cells", "setting": "[2]; 10 μg/mL or 100 μg/mL, 12 days", "result": "no obvious reduction"},
      {"measurement": "lymphatic vessel formation around the tumour (visual inspection)", "setting": "[2]; 100 μg/mL, compared to 10 μg/mL", "result": "further reduction in lymphatic vessel network density"},
      {"measurement": "development of blood vasculature around the tumour", "setting": "[2]; 10 and 100 μg/mL", "result": "no discernable effect"},
      {"measurement": "reduction of mean intensity of LyVe-1 staining compared to vehicle only", "setting": "[2]; both 10 μg/mL and 100 μg/mL, whole mount ears, 12 days", "result": "approximately 60%"},
      {"measurement": "number of branches of lymphatic vessels", "setting": "[2]; [3]", "result": "significantly reduced"},
      {"measurement": "number of loops of lymphatic vessels", "setting": "[2]; [3]", "result": "significantly reduced"}
    ]}
  ]
}
